Literature values as cited in PMC2682639.

Biological target: Hint1 (Homo sapiens) (UniProt P49773)

Hint1, sequence (P49773 2-126): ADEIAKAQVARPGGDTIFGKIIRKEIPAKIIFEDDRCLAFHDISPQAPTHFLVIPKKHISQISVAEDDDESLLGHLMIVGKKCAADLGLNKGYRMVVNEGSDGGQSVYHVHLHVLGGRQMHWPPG

Kd: < 1 nM
Substance: Hint1 (from UniProt P49773)
